# Source: patent US20210284749A1 (ABL BIO, published 2021)
# T1: recombinant human BCMA (ELISA antigen, construct not specified) (human, UniProt Q02223 1-54)
# T1 construct: Fc 1-51; Fc/His 1-51; Fc 4-48) was coated in these ELISAs; also called recombinant BCMA; recombinant protein
# T1 sequence: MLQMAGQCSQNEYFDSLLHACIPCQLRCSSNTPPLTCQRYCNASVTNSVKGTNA
# T2: human BCMA-Fc/His (1-51) (human, UniProt Q02223 1-51)
# T2 construct: also called recombinant human BCMA-Fc/His; recombinant human BCMA-His (Sino Biological Inc.); not shown: Fc region; C-terminal His tag
# T2 sequence: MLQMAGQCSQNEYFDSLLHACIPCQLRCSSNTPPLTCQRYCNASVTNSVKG
# T3: human monomeric BCMA antigen (human, UniProt Q02223 5-54, limits assumed)
# T3 construct: also called recombinant human BCMA antigens
# T3 chain: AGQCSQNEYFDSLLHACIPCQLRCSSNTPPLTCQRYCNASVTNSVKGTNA
# T4: rat BCMA (1-49) fused to the Fc region of human IgG1 (rat; human)
# T4 construct: Sino Biological Inc. 80156-R01H; also called 80156-R01H; not shown: Fc region of human IgG1
# T4 chain: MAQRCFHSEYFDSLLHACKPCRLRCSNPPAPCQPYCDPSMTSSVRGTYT
# T5: human BCMA expressed on cell surface (H929, OPM-2, CHOK1-hBCMA cells) (human, UniProt Q02223 1-184)
# T5 construct: also called cell-surface BCMA; BCMA on cell surface
# T5 sequence: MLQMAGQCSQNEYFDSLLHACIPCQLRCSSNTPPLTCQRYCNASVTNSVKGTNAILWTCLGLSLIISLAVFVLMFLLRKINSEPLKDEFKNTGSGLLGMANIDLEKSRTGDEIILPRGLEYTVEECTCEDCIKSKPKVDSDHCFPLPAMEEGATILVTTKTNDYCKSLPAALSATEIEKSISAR
# Key:
# [1] = target: T1, recombinant human BCMA (ELISA antigen, …); assay: ELISA, 100 ng coated antigen
# Protocol: (§1) 100 ng of human, monkey, mouse, and rat BCMA antigens prepared in Example 1.1 were coated on the bottom of the plate, and then coated with 3% BSA to block nonspecific binding. Using the selected anti-BCMA IgG antibodies as primary antibodies, and the anti-human Fab HRP (1:20000 dilution) as a secondary antibody, ELISA assay was performed as described in Example 1.3.
# (§2) Absorbancies at 450 nm measured with a microplate reader are shown in FIG. 3, and half maximal effective concentrations (EC₅₀) (nM) are shown in Table 9.
# [2] = target: T6, monkey (Rhesus) BCMA (1-53) fused to the Fc region of human IgG1 (monkey (Rhesus); human, UniProt Q02223 1-54); assay: ELISA, 100 ng coated antigen
# T6 construct: Sino Biological Inc. 90103-C02H; also called monkey BCMA; Monkey BCMA (1-53); not shown: Fc region of human IgG1
# Protocol: as §1, §2
# human BCMA-Fc/His (1-51) = target: T2, human BCMA-Fc/His (1-51); assay: BLI (Octet), antigen on Ni-NTA biosensor, IgG in solution
# Protocol: A 96-well black microplate was mounted on a Biosensor tray case, 200 μl of 1XKB was added to each of the 8 wells, and then 8 Ni-NTA biosensors (Fortebio) were inserted thereto for hydration for 10 minutes. For antigen fixation, 5 μg/ml of recombinant human BCMA-His (Sino Biological Inc.) was diluted using 1XKB. Experiments were performed with a threshold of 0.5 to 1.0 nm, and Octet Data Acquisition 9.0 software was activated to create an Octet program template. The first step was for Baseline 1, the second step was for loading, and the threshold was fixed to 0.5 to 1.0 nm. In the third step, which was for Baseline 2, association for 5 minutes and dissociation for 20 minutes were performed. A plate temperature was fixed to 30° C., and the prepared buffer solution was placed in order into a new 96-well black microplate according to the Octet program template. 200 μl of 1XKB used as Baseline 1 and recombinant human BCMA-Fc/His which is an antigen to be loaded were diluted to 5 μg/ml, and 200 μl of the dilution was added thereto. After adding 200 μl of 1XKB used as Baseline 2, 200 μl of the antibody to be reacted with the antigen was dispensed, and the instrument was operated. After completion of the experiment, an association constant (kon), a dissociation constant (kdis), and an equilibrium dissociation constant (KD) for each antibody were analyzed and calculated with Octet Analysis 9.0 software.
# [3] = target: T3, human monomeric BCMA antigen; assay: SPR (Biacore T200), antibody captured on protein A chip, antigen 6.25-100 nM
# Protocol: In particular, the prepared antibodies were diluted with a 1×HPS-EP buffer (GE Healthcare, BR-1006-69). The target antigen-binding affinity analysis was performed using a Biacore T200 (GE Healthcare). The antibodies were flowed onto a protein A chip at a contact time of 60 seconds, a stabilization time of 30 seconds, and a flow rate of 30 μl/min until a capture level reached 128 RU (Response Unit), thereby preparing an antibody-captured protein A chip.
# The antigen was sequentially diluted with a 1×HPS-EP buffer, by 2-fold each time, from 100 nM to 6.25 nM, thereby preparing a total of […] samples. The 1×HPS-EP buffer was used as a negative control group (blank).
# The prepared antigen was flowed across the antibody-captured protein A chip at a flow rate of 30 μl/min for an association time of 60 seconds, followed by a disassociation phase for 180 seconds. Regeneration was performed with a 10-mM Glycine-HCL (pH 1.5) buffer (GE Healthcare, BR-1003-54) at a flow rate of 30 μl/min for a contact time of 30 seconds.
# [4] = target: T4, rat BCMA (1-49) fused to the Fc region …; assay: ELISA on 100 ng coated rat BCMA, antibody titrated, anti-human Fab HRP, absorbance 450 nm
# Protocol: as §1, §2
# [5] = target: T5, human BCMA expressed on cell surface …; assay: FACS on OPM-2 cells, 10 µg/ml antibody, anti-human Fc-FITC; open histogram shifted right of the filled control
# Protocol: Multiple myeloma cancer cells H929 (ATCC, CRL9068™) and OPM-2 cell line (DSMZ, ACC 50), which are known to express BCMA, were prepared, and human BCMA-overexpressed CHOK1-hBCMA cell line (constructed by ABIBio) were prepared.
# 10 μg/ml of the seven IgG antibodies (B58, 5A6, 5D5, 5B5, 1H, 2G, and 5G) purified in Example 1.4 was added to the prepared cells, incubated at 4° C. for 1 hour, and then washed two times with a PBS buffer solution. The anti-human Fc-FITC was diluted in 1:400, incubated at 4° C. for 1 hour, and then washed with a PBS buffer solution. These processes were repeated. In FIGS. 2A and 2B, MFI indicates mean fluorescence intensity.
Binder,EC50 [1] [nM],EC50 [2] [nM],Kd (human BCMA-Fc/His (1-51)) [nM],koff (human BCMA-Fc/His (1-51)) [s⁻¹],kon (human BCMA-Fc/His (1-51)) [M⁻¹ s⁻¹],Kd [3] [nM],koff [3] [s⁻¹],kon [3] [M⁻¹ s⁻¹],EC50 (read off the curve) [4] [µg/mL],MFI [5],binding result [4]
"anti-BCMA IgG antibody 5D5 (antibody, V domains shown, also called 5D5 WT; 5D5 antibody) VH: EVQLLESGGGLVQPGGSLRLSCAASGFTFSDYGLSWVRQAPGKGLEWVSLIDSSGSSTFYADSVKGRFTISRDNSKNTLYLQMNSLRAEDTAVYYCAKEHGLFDSWGQGTLVTVSS VL: EIVLTQSPGTLSLSPGERATLSCKASQDIDDDINWYQQKPGQAPRLLIYDASLRATGIPDRFSGSGSGTDFTLTISRLEPEDFAVYYCQQSLRTPITFGQGTKLEIKR",140,94,0.114,0.000105,919000,22.8,0.0601,2.63e+06,~0.02,21.8,–
"anti-BCMA IgG antibody 5A6 (antibody, V domains shown, also called 5A6 WT; 5A6 antibody) VH: EVQLLESGGGLVQPGGSLRLSCAASGFTFSNYGVHWVRQAPGKGLEWVSYISYSGGTYYNPSLKSRFTISRDNSKNTLYLQMNSLRAEDTAVYYCARDSDDFGFDYWGQGTLVTVSS VL: QSVLTQPPSASGTPGQRVTISCQGDSLRSYYVNWYQQLPGTAPKLLIYDHSKRPTGVPDRFSGSKSGTSASLAISGLRSEDEADYYCQSYDSSTVVFGGGTKLTVLG",100,153,0.0212,1.08e-05,509000,62.4,0.0249,399000,–,54.7,no binding (tested: about 30 µg/ml)
